From US20050064507

Assays:
[1] = system: T1, peptide EGGDRRASGRRK (SEQ ID NO:34)
T1 sequence: XXPPGEGGDRRASGRRK

[2] = system: T2, peptide EEAEHKATKARLADK (SEQ ID NO:75)
T2 sequence: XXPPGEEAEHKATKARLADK

[3] = system: T3, DGKI peptide NRKKKRTSFKRKA (SEQ ID NO:79)
T3 sequence: NRKKKRTSFKRKA

[4] = system: T4, peptide KFARKSTRRSIRLPE (SEQ ID NO:4)
T4 sequence: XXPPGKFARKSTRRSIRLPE

[5] = system: T5, peptide VLAKKGTSKTPVPE (SEQ ID NO:44)
T5 sequence: XXPPGVLAKKGTSKTPVPE

[6] = system: T6, MARCKS peptide KKKRFSFKKSFKLSGFSFKK (SEQ ID NO:111)
T6 sequence: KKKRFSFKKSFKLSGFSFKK

[7] = system: T7, PLD1 peptide KYKAFIRIPIPTRRHTFRRQ (SEQ ID NO:161)
T7 sequence: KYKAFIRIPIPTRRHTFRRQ

[8] = system: T8, gravin peptide KKFFTQGWAGWRKKTSFRKP (SEQ ID NO:154)
T8 sequence: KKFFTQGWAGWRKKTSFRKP

[9] = system: T9, PARIS1 peptide EYLERRASRRRAV (SEQ ID NO:89)
T9 sequence: EYLERRASRRRAV

[10] = system: T10, peptide IDYYKKTSNGRLPVK (SEQ ID NO:74)
T10 sequence: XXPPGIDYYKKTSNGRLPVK

[11] = system: T11, CREB1 peptide EILSRRPSYRKILND (SEQ ID NO:106)
T11 sequence: EILSRRPSYRKILND

[12] = system: T12, p164-RhoGEF peptide PRLIRRGSKKRPAR (SEQ ID NO:82)
T12 sequence: PRLIRRGSKKRPAR

[13] = system: T13, ADD2 peptide KKKFRTPSFLKKSKK (SEQ ID NO:95)
T13 sequence: KKKFRTPSFLKKSKK

[14] = system: T14, MLK3 peptide QQVDRERPHVRRRRGTFKRS (SEQ ID NO:128)
T14 sequence: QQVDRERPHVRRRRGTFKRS

[15] = system: T15, peptide AKNLKTLQKRDSFIG (SEQ ID NO:53)
T15 sequence: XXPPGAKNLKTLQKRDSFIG

[16] = system: T16, dag kinase iota peptide NRKKKRTSFKRKA (SEQ ID NO:117)
T16 sequence: NRKKKRTSFKRKA

[17] = system: T17, peptide LRRKHLGTLNFGGIR (SEQ ID NO:60)
T17 sequence: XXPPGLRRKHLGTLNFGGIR

[18] = system: T18, peptide AVNSRRRAGQKKK (SEQ ID NO:48)
T18 sequence: XXPPGAVNSRRRAGQKKK

[19] = system: T19, peptide KKRKKKSSKSLAHA (SEQ ID NO:27)
T19 sequence: XXPPGKKRKKKSSKSLAHA

[20] = system: T20, peptide RRRQKRRTGALVLSRGGKR (SEQ ID NO:71)
T20 sequence: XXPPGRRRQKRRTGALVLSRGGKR

[21] = system: T21, NR4A3 peptide KEVVRTDSLKGRRGR (SEQ ID NO:109)
T21 sequence: KEVVRTDSLKGRRGR

[22] = system: T22, PARIS1 peptide EYLERRASRRRAV (SEQ ID NO:138)
T22 sequence: EYLERRASRRRAV

[23] = system: T23, peptide QKRHARVTVKYDRRE (SEQ ID NO:23)
T23 sequence: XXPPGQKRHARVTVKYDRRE

[24] = system: T24, peptide FVHQASFKFGQGD (SEQ ID NO:41)
T24 sequence: XXPPGFVHQASFKFGQGD

[25] = system: T25, peptide EYLERRASRRRAV (SEQ ID NO:14)
T25 sequence: XXPPGEYLERRASRRRAV

[26] = system: T26, peptide DGQKRKKSLRKKLD (SEQ ID NO:16)
T26 sequence: XXPPGDGQKRKKSLRKKLD

[27] = system: T27, slp4 peptide TYLLPDKSRQGKRKTSIKRD (SEQ ID NO:153)
T27 sequence: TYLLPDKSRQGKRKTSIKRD

[28] = system: T28, ARHGAP6 peptide SAQITIPKDGQKRKKSLRKK (SEQ ID NO:156)
T28 sequence: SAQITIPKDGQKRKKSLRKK

[29] = system: T29, peptide AYIERMNSIHRDLRA (SEQ ID NO:37)
T29 sequence: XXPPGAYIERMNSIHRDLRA

[30] = system: T30, LIMK-2 peptide LRRRSLRRSNSISKSPGP (SEQ ID NO:121)
T30 sequence: LRRRSLRRSNSISKSPGP

[31] = system: T31, p47phox peptide QAQRQIKRGAPPRRSSIRNA (SEQ ID NO:146)
T31 sequence: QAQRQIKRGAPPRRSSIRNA

[32] = system: T32, peptide KKRFSFKKSFKLSGFSFKKN (SEQ ID NO:18)
T32 sequence: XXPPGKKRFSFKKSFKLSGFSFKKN

[33] = system: T33, CREB peptide VTDSQKRREILSRRPSYPKI (SEQ ID NO:141)
T33 sequence: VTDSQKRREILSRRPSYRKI

[34] = system: T34, peptide KRPGKKGSNKRPGKR (SEQ ID NO:28)
T34 sequence: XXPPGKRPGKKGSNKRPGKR

[35] = system: T35, peptide VDNILKKSNKKLEEL (SEQ ID NO:61)
T35 sequence: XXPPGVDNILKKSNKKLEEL

[36] = system: T36, peptide AWVTVHEKKSSRKSEYL (SEQ ID NO:43)
T36 sequence: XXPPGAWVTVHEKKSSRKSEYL

[37] = system: T37, peptide AGSFKRNSIKKIV (SEQ ID NO:19)
T37 sequence: XXPPGAGSFKRNSIKKIV

[38] = system: T38, FLJ20574 peptide GENVLKKSMKSRVKG (SEQ ID NO:113)
T38 sequence: GENVLKKSMKSRVKG

[39] = system: T39, peptide QPEGLRSLKKPDRKKR (SEQ ID NO:42)
T39 sequence: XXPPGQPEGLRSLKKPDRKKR

[40] = system: T40, peptide ENLRRVATDRRHLGH (SEQ ID NO:50)
T40 sequence: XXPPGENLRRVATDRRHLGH

[41] = system: T41, MAP3K14 peptide WKGKRRSKARKKRK (SEQ ID NO:100)
T41 sequence: WKGKRRSKARKKRK

[42] = system: T42, GABA A receptor beta 2 peptide ERHVAQKKSRLRRRASQLKI (SEQ ID NO:142)
T42 sequence: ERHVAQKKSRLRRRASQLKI

## PKC-delta
[1]
  in vitro phosphorylation (% of best substrate): 5
[2]
  in vitro phosphorylation (% of best substrate): 0
[3]
  in vitro phosphorylation (% of best substrate): 66
[4]
  in vitro phosphorylation (% of best substrate): 52
[5]
  in vitro phosphorylation (% of best substrate): 2
[6]
  in vitro phosphorylation (% of best substrate): 16
[7]
  in vitro phosphorylation, 1 uM peptide (% of best substrate): 22
  in vitro phosphorylation, 10 uM peptide (% of best substrate): 14
[8]
  in vitro phosphorylation, 1 uM peptide (% of best substrate): 26
  in vitro phosphorylation, 10 uM peptide (% of best substrate): 14
[9]
  in vitro phosphorylation (% of best substrate): 20
[10]
  in vitro phosphorylation (% of best substrate): 0
[11]
  in vitro phosphorylation (% of best substrate): 9
[12]
  in vitro phosphorylation (% of best substrate): 40
[13]
  in vitro phosphorylation (% of best substrate): 25
[14]
  in vitro phosphorylation, 1 uM peptide (% of best substrate): 46
  in vitro phosphorylation, 10 uM peptide (% of best substrate): 57
[15]
  in vitro phosphorylation (% of best substrate): 2
[16]
  in vitro phosphorylation, 1 uM peptide (% of best substrate): 100
  in vitro phosphorylation, 10 uM peptide (% of best substrate): 79
[17]
  in vitro phosphorylation (% of best substrate): 1
[18]
  in vitro phosphorylation (% of best substrate): 2
[19]
  in vitro phosphorylation (% of best substrate): 8
[20]
  in vitro phosphorylation (% of best substrate): 1
[21]
  in vitro phosphorylation (% of best substrate): 7
[22]
  in vitro phosphorylation, 1 uM peptide (% of best substrate): 49
  in vitro phosphorylation, 10 uM peptide (% of best substrate): 28
[23]
  in vitro phosphorylation (% of best substrate): 10
[24]
  in vitro phosphorylation (% of best substrate): 3
[25]
  in vitro phosphorylation (% of best substrate): 20
[26]
  in vitro phosphorylation (% of best substrate): 17
[27]
  in vitro phosphorylation, 1 uM peptide (% of best substrate): 32
  in vitro phosphorylation, 10 uM peptide (% of best substrate): 26
[28]
  in vitro phosphorylation, 1 uM peptide (% of best substrate): 29
  in vitro phosphorylation, 10 uM peptide (% of best substrate): 31
[29]
  in vitro phosphorylation (% of best substrate): 3
[30]
  in vitro phosphorylation, 1 uM peptide (% of best substrate): 80
  in vitro phosphorylation, 10 uM peptide (% of best substrate): 53
[31]
  in vitro phosphorylation, 1 uM peptide (% of best substrate): 33
  in vitro phosphorylation, 10 uM peptide (% of best substrate): 14
[32]
  in vitro phosphorylation (% of best substrate): 16
[33]
  in vitro phosphorylation, 1 uM peptide (% of best substrate): 43
  in vitro phosphorylation, 10 uM peptide (% of best substrate): 21
[34]
  in vitro phosphorylation (% of best substrate): 8
[35]
  in vitro phosphorylation (% of best substrate): 1
[36]
  in vitro phosphorylation (% of best substrate): 3
[37]
  in vitro phosphorylation (% of best substrate): 14
[38]
  in vitro phosphorylation (% of best substrate): 4
[39]
  in vitro phosphorylation (% of best substrate): 3
[40]
  in vitro phosphorylation (% of best substrate): 2
[41]
  in vitro phosphorylation (% of best substrate): 22
[42]
  in vitro phosphorylation, 1 uM peptide (% of best substrate): 30
  in vitro phosphorylation, 10 uM peptide (% of best substrate): 36
